# B1: Protein EAP1 (Saccharomyces cerevisiae), P36041 (parent)
# chain: MELNDPSIISSSQFSGELSDSDTAAATHKSQQAISNLFQKLAKKGREEKPIGSVESSTDSSNISVATSGNNKESNKKKNKKTAMLNFSSLTDPITNYKPMDLQYKTYAYSMNELYHLKPSLASASYEEDPLISELVRSLPKRKFWRLRMGPPDQKHANNHHFNGNNGGGSWKAGYKNGKNDERRMSRTKNMQGGKRRSQQDDEEKKIDQEMLEMDKNLQLGGDVGHSIADFEDWKAKMKELELKKLSKSKGISNSTAIAPRESASHETPTDLRPVIPRGPSSITDFLNLKRQDKKEESSQQTPGIPVGQPSLSKTSIEQVNELETNSDLGKSSSSRFSSFFNKSATSLPSLDNNNQVPSSNVSVVNNDGNSTPHQSGSRLMSFFKESRSSTPNAESQLLSASDKDNGKMQTLPQFQQQPQQMQPMAFTQHPPNNNAFFNGLLNKGKSETSTPPPPPPGLIAHQGPQFPVMGVPPNFPQRMMPPPPGLVQFQKDSKDVNKKEDRQLRQNKNPNGTRNSKGKQEETATPDLPQQQYMPPPPPPGFFPMHPNFPNGPMPPLPQGFPIPPNGMLPVTGQQPQPPYPNMMLQGNFPPNFQQGFGSNSPMPIPSIINANGKNVTNQLPPGLNSKKNIK
# partner: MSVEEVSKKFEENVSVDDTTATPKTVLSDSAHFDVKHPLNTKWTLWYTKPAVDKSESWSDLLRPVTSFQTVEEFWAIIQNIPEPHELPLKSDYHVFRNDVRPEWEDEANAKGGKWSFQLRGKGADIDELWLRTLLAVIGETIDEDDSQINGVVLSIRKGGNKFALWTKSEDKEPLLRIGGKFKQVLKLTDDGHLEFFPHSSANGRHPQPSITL
# Variants of: B1
# Conditions: with if4e_yeast CDC33, P07260
row,Variant,effect of a mutation on the interaction
1,Y109A,disrupting interaction
2,Y109A;L114A,disrupting interaction

# From IntAct's records for PubMed 15848184
